Laboratory results: publication doi:10.1101/2023.05.03.539133 (bioRxiv, 2023)

Columns and labels:
[1] = target: the molecule itself; experiment: SEC
[2] = target: the molecule itself; experiment: AUC

B1: inner membrane cytochrome c ImcH from Geobacter sulfurreducens (recombinant, C-terminal 6x His-tag) (natural protein, UniProt Q747K6 1-507, looked up)
chain: MTLRKTAGYLWNPISLIGFLLAVVATGLIIAFIAMEMITGIDHPYIGLLVYFAFPGMLILGLILVPIGAWRVRNQRRTEVPEEVPPYPRVDFNDPHKRRLFIFFVLASVIFVLIVSVASILGFEFTESTTFCGELCHVVMEPEHKAWQGSPHARVKCVECHVGPGAEWYVKAKLSGLRQVWAVLTHSYHFPIATPIENLRPARDTCEQCHWPEKFYSGRQRVFYHYAPNKENTPREINMLIKIGGTPKSPHAMGIHWHIGTEVTYIARDRKRLDIPYVAVKQKDGSIVEYMDTEKPLTREEIAKAEKRRMDCIDCHNRPTHIYRSPAREMDEHIVSGQIDAGLPYIKKVAVEILEQPYKSKEEAHAAIEAKLPEYYAKNFPEVAKVKAAAINQAVAHVKDIYSRNFFPRMKVTWSTYPNHIGHFYTPGCFRCHDGKHKTSTGKIISKDCNMCHEMIGQKGENIPEGKVVKEFVHPADIGDALYNVNCSDCHMAAAEDSAGGEGPGKH
modifications: seven c-type hemes (CXXCH heme binding motifs)
stoichiometry N [1]: 2
stoichiometry N [2]: 4
